Here are results for 27 molecules from patent US20170296640A1 (IMMATICS BIOTECHNOLOGIES, published 2017).

The chains are these.
B1: AILLPQPPK (SEQ ID NO: 273) (peptide)
peptide: AILLPQPPK
B2: VVVDSDSLAFV (SEQ ID NO: 270) (peptide)
peptide: VVVDSDSLAFV
B3: FLLFINHRL (SEQ ID NO: 278) (peptide)
peptide: FLLFINHRL
B4: KLLNLISKL (SEQ ID NO: 274) (peptide)
peptide: KLLNLISKL
B5: ILTGTPPGV (SEQ ID NO: 264) (peptide)
peptide: ILTGTPPGV
B6: FLPETRIMTSV (SEQ ID NO: 261) (peptide)
peptide: FLPETRIMTSV
B7: SLLETGSDLLL (SEQ ID NO: 267) (peptide)
peptide: SLLETGSDLLL
B8: GLMDNEIKV (SEQ ID NO: 263) (peptide)
peptide: GLMDNEIKV
B9: FLQEWEVYA (SEQ ID NO: 257) (peptide)
peptide: FLQEWEVYA
B10: YLLDQPVLEQRL (SEQ ID NO: 271) (peptide)
peptide: YLLDQPVLEQRL
B11: KLDHTLSQI (SEQ ID NO: 272) (peptide)
peptide: KLDHTLSQI
B12: FLNQESFDL (SEQ ID NO: 27) (peptide)
peptide: FLNQESFDL
B13: FLSNANPSL (SEQ ID NO: 28) (peptide)
peptide: FLSNANPSL
B14: QLTEMLPSI (SEQ ID NO: 266) (peptide)
peptide: QLTEMLPSI
B15: SLLNHLPYL (SEQ ID NO: 280) (peptide)
peptide: SLLNHLPYL
B16: KLMDLEDCAL (SEQ ID NO: 275) (peptide)
peptide: KLMDLEDCAL
B17: TVLDGLEFKV (SEQ ID NO: 259) (peptide)
peptide: TVLDGLEFKV
B18: RLDEAFDFV (SEQ ID NO: 260) (peptide)
peptide: RLDEAFDFV
B19: NMISYVVHL (SEQ ID NO: 276) (peptide)
peptide: NMISYVVHL
B20: TLQTVPLTTV (SEQ ID NO: 281) (peptide)
peptide: TLQTVPLTTV
B21: LMGPVVHEV (SEQ ID NO: 262) (peptide)
peptide: LMGPVVHEV
B22: ILWHFVASL (SEQ ID NO: 265) (peptide)
peptide: ILWHFVASL
B23: FLIDLNSTHGTFL (SEQ ID NO: 277) (peptide)
peptide: FLIDLNSTHGTFL
B24: VLQNVAFSV (SEQ ID NO: 269) (peptide)
peptide: VLQNVAFSV
B25: VLFPLPTPL (SEQ ID NO: 268) (peptide)
peptide: VLFPLPTPL
B26: NLAGENILNPL (SEQ ID NO: 279) (peptide)
peptide: NLAGENILNPL
B27: RIYPFLLMV (SEQ ID NO: 258) (peptide)
peptide: RIYPFLLMV

This test addresses T1, HLA-A*02:01 (peptide-receptive MHC class I monomer after UV cleavage of the UV-sensitive ligand) (human).
T1 construct: MHC monomers loaded by UV-ligand exchange and captured on streptavidin plates
Kind of test: UV ligand-exchange ELISA; exchange yield grade (+ >=10%, ++ >=20%, +++ >=50%, ++++ >=75%). Put shortly:
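Binding capacity is expressed as the yield of UV-mediated ligand exchange, reflecting how well each peptide stabilizes peptide-receptive MHC. Stabilized complexes are read out by anti-β2m HRP ELISA (450 nm) after streptavidin capture, with refolded MLA-001 monomer standards for quantitation.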
In the case of B1, the peptide exchange yield lay in the range of 20 to 50%.

B2: the peptide exchange yield was not below 75%.

Molecule B3 returned a peptide exchange yield of 50 to 75%.

Regarding B4, the peptide exchange yield is not below 75%.

In the case of B5, the peptide exchange yield was in the range of 50 to 75%.

Consider B6, for which the peptide exchange yield was not below 75%.

As for B7, the peptide exchange yield lay in the range of 50 to 75%.

Consider B8, for which the peptide exchange yield lay within 50 to 75%.

B9 showed a peptide exchange yield not below 75%.

B10 returned a peptide exchange yield not below 75%.

B11: the peptide exchange yield lay within 50 to 75%.

For B12, the peptide exchange yield lay in the range of 50 to 75%.

Molecule B13 came in with a peptide exchange yield of 50 to 75%.

B14: the peptide exchange yield is not below 75%.

B15 displayed a peptide exchange yield not below 75%.

In turn, B16 came in with a peptide exchange yield not below 75%.

For the molecule B17, the peptide exchange yield was not below 75%.

Consider B18, for which the peptide exchange yield is not below 75%.

In the case of B19, the peptide exchange yield is 20 to 50%.

B20: the peptide exchange yield was not below 75%.

B21 displayed a peptide exchange yield not below 75%.

As for B22, the peptide exchange yield was not below 75%.

As for B23, the peptide exchange yield lay within 50 to 75%.

For the molecule B24, the peptide exchange yield is not below 75%.

As for B25, the peptide exchange yield was not below 75%.

As for B26, the peptide exchange yield lay in the range of 50 to 75%.

On to B27, for which the peptide exchange yield is 50 to 75%.
